This is an account of results in US20240000838A1 (SIMCERE INNOVATION, published 2024).

The target of the test is T1, CD5 on human T cells (autologous and allogeneic Pan-T cells) and on the T-ALL cell line CCRF-CEM (human, UniProt P06127 25-495).
T1 sequence (looked up): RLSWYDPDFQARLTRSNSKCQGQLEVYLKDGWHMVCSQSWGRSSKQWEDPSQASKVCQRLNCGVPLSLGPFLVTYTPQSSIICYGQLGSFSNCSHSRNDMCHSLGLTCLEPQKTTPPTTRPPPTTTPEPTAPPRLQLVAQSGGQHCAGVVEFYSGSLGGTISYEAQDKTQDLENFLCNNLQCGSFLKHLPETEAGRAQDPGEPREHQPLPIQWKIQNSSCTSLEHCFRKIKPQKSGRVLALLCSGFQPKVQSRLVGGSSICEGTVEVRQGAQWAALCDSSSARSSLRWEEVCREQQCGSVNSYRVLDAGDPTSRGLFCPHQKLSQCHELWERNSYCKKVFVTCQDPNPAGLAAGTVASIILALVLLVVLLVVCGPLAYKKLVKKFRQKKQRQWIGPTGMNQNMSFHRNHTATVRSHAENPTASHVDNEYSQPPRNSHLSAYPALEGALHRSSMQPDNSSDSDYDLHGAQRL
Kind of test: cell-based or functional assay.

B1: CD5/CD33 Dual-CAR, construct S041 (other)
chain: EIQLVQSGGGLVKPGGSVRISCAASGYTFTNYGMNWVRQAPGKGLEWMGWINTHTGEPTYADSFKGRFTFSLDDSKNTAYLQINSLRAEDTAVYFCTRRGYDWYFDVWGQGTTVTVSSGGGGSDIQMTQSPSSLSASVGDRVTITCRASESVDNYGISFMNWFQQKPGKAPKLLIYAASNQGSGVPSRFSGSGSGTDFTLTISSLQPDDFATYYCQQSKEVPWTFGQGTKVEIKGSTSGSGKPGSGEGSTKGQVQLVQSGAEVKKPGSSVKVSCKASGYTFTDYNMHWVRQAPGQGLEWIGYIYPYNGGTGYNQKFKSKATITADESTNTAYMELSSLRSEDTAVYYCARGRPAMDYWGQGTLVTVSSGGGGSDIQMTQSPSSLSASVGDRVTITCRASQDINSYLSWFQQKPGKAPKTLIYRANRLESGVPSRFSGSGSGTDYTLTISSLQYEDFGIYYCQQYDESPWTFGGGTKLEIKASTTTPAPRPPTPAPTIASQPLSLRPEACRPAAGGAVHTRGLDFACDIYIWAPLAGTCGVLLLSLVITLYCKRGRKKLLYIFKQPFMRPVQTTQEEDGCSCRFPEEEEGGCELRVKFSRSADAPAYKQGQNQLYNELNLGRREEYDVLDKRRGRDPEMGGKPRRKNPQEGLYNELQKDKMAEAYSEIGMKGERRRGKGHDGLYQGLSTATKDTYDALHMQALPPR
Take B1: the “elimination of CCRF-CEM cells after 18 hours (luciferase-based killing assay)” value (“elimination of CCRF-CEM cells” for short) was about 100%.

B2: CD5/CD33 Dual-CAR, construct S040 (other)
chain: DIQMTQSPSSLSASVGDRVTITCRASQDINSYLSWFQQKPGKAPKTLIYRANRLESGVPSRFSGSGSGTDYTLTISSLQYEDFGIYYCQQYDESPWTFGGGTKLEIKGGGGSQVQLVQSGAEVKKPGSSVKVSCKASGYTFTDYNMHWVRQAPGQGLEWIGYIYPYNGGTGYNQKFKSKATITADESTNTAYMELSSLRSEDTAVYYCARGRPAMDYWGQGTLVTVSSGSTSGSGKPGSGEGSTKGDIQMTQSPSSLSASVGDRVTITCRASESVDNYGISFMNWFQQKPGKAPKLLIYAASNQGSGVPSRFSGSGSGTDFTLTISSLQPDDFATYYCQQSKEVPWTFGQGTKVEIKGGGGSEIQLVQSGGGLVKPGGSVRISCAASGYTFTNYGMNWVRQAPGKGLEWMGWINTHTGEPTYADSFKGRFTFSLDDSKNTAYLQINSLRAEDTAVYFCTRRGYDWYFDVWGQGTTVTVSSASTTTPAPRPPTPAPTIASQPLSLRPEACRPAAGGAVHTRGLDFACDIYIWAPLAGTCGVLLLSLVITLYCKRGRKKLLYIFKQPFMRPVQTTQEEDGCSCRFPEEEEGGCELRVKFSRSADAPAYKQGQNQLYNELNLGRREEYDVLDKRRGRDPEMGGKPRRKNPQEGLYNELQKDKMAEAYSEIGMKGERRRGKGHDGLYQGLSTATKDTYDALHMQALPPR
As to B2, the “elimination of CCRF-CEM cells” value is about 100%.

B3: CD5/CD33 Dual-CAR, construct S036 (other)
chain: DIKMTQSPSSMYASLGERVTITCKASQDINSYLSWFHHKPGKSPKTLIYRANRLVDGVPSRFSGSGSGQDYSLTISSLDYEDMGIYYCQQYDESPWTFGGGTKLEMKGGGGSQVQLVQSGAEVKKPGSSVKVSCKASGYTFTDYNMHWVRQAPGQGLEWIGYIYPYNGGTGYNQKFKSKATITADESTNTAYMELSSLRSEDTAVYYCARGRPAMDYWGQGTLVTVSSGSTSGSGKPGSGEGSTKGDIQMTQSPSSLSASVGDRVTITCRASESVDNYGISFMNWFQQKPGKAPKLLIYAASNQGSGVPSRFSGSGSGTDFTLTISSLQPDDFATYYCQQSKEVPWTFGQGTKVEIKGGGGSNIQLVQSGPELKKPGETVKISCKASGYTFTNYGMNWVKQAPGKGLRWMGWINTHTGEPTYADDFKGRFAFSLETSASTAYLQINNLKNEDTATYFCTRRGYDWYFDVWGAGTTVTVSSASTTTPAPRPPTPAPTIASQPLSLRPEACRPAAGGAVHTRGLDFACDIYIWAPLAGTCGVLLLSLVITLYCKRGRKKLLYIFKQPFMRPVQTTQEEDGCSCRFPEEEEGGCELRVKFSRSADAPAYKQGQNQLYNELNLGRREEYDVLDKRRGRDPEMGGKPRRKNPQEGLYNELQKDKMAEAYSEIGMKGERRRGKGHDGLYQGLSTATKDTYDALHMQALPPR
For B3, the “elimination of CCRF-CEM cells” value was about 100%.

B4: CD5/CD33 Dual-CAR, construct S042 (other)
chain: DIQMTQSPSSLSASVGDRVTITCRASESVDNYGISFMNWFQQKPGKAPKLLIYAASNQGSGVPSRFSGSGSGTDFTLTISSLQPDDFATYYCQQSKEVPWTFGQGTKVEIKGGGGSEIQLVQSGGGLVKPGGSVRISCAASGYTFTNYGMNWVRQAPGKGLEWMGWINTHTGEPTYADSFKGRFTFSLDDSKNTAYLQINSLRAEDTAVYFCTRRGYDWYFDVWGQGTTVTVSSGSTSGSGKPGSGEGSTKGDIQMTQSPSSLSASVGDRVTITCRASQDINSYLSWFQQKPGKAPKTLIYRANRLESGVPSRFSGSGSGTDYTLTISSLQYEDFGIYYCQQYDESPWTFGGGTKLEIKGGGGSQVQLVQSGAEVKKPGSSVKVSCKASGYTFTDYNMHWVRQAPGQGLEWIGYIYPYNGGTGYNQKFKSKATITADESTNTAYMELSSLRSEDTAVYYCARGRPAMDYWGQGTLVTVSSASTTTPAPRPPTPAPTIASQPLSLRPEACRPAAGGAVHTRGLDFACDIYIWAPLAGTCGVLLLSLVITLYCKRGRKKLLYIFKQPFMRPVQTTQEEDGCSCRFPEEEEGGCELRVKFSRSADAPAYKQGQNQLYNELNLGRREEYDVLDKRRGRDPEMGGKPRRKNPQEGLYNELQKDKMAEAYSEIGMKGERRRGKGHDGLYQGLSTATKDTYDALHMQALPPR
Turning to B4, the “elimination of CCRF-CEM cells” value was about 100%.

B5: CD5/CD33 Dual-CAR, construct S037 (other)
chain: NIQLVQSGPELKKPGETVKISCKASGYTFTNYGMNWVKQAPGKGLRWMGWINTHTGEPTYADDFKGRFAFSLETSASTAYLQINNLKNEDTATYFCTRRGYDWYFDVWGAGTTVTVSSGGGGSDIQMTQSPSSLSASVGDRVTITCRASESVDNYGISFMNWFQQKPGKAPKLLIYAASNQGSGVPSRFSGSGSGTDFTLTISSLQPDDFATYYCQQSKEVPWTFGQGTKVEIKGSTSGSGKPGSGEGSTKGQVQLVQSGAEVKKPGSSVKVSCKASGYTFTDYNMHWVRQAPGQGLEWIGYIYPYNGGTGYNQKFKSKATITADESTNTAYMELSSLRSEDTAVYYCARGRPAMDYWGQGTLVTVSSGGGGSDIKMTQSPSSMYASLGERVTITCKASQDINSYLSWFHHKPGKSPKTLIYRANRLVDGVPSRFSGSGSGQDYSLTISSLDYEDMGIYYCQQYDESPWTFGGGTKLEMKASTTTPAPRPPTPAPTIASQPLSLRPEACRPAAGGAVHTRGLDFACDIYIWAPLAGTCGVLLLSLVITLYCKRGRKKLLYIFKQPFMRPVQTTQEEDGCSCRFPEEEEGGCELRVKFSRSADAPAYKQGQNQLYNELNLGRREEYDVLDKRRGRDPEMGGKPRRKNPQEGLYNELQKDKMAEAYSEIGMKGERRRGKGHDGLYQGLSTATKDTYDALHMQALPPR
In the case of B5, the “elimination of CCRF-CEM cells” value is about 100%.

B6: CD5/CD33 Dual-CAR, construct S038 (other)
chain: DIQMTQSPSSLSASVGDRVTITCRASESVDNYGISFMNWFQQKPGKAPKLLIYAASNQGSGVPSRFSGSGSGTDFTLTISSLQPDDFATYYCQQSKEVPWTFGQGTKVEIKGGGGSNIQLVQSGPELKKPGETVKISCKASGYTFTNYGMNWVKQAPGKGLRWMGWINTHTGEPTYADDFKGRFAFSLETSASTAYLQINNLKNEDTATYFCTRRGYDWYFDVWGAGTTVTVSSGSTSGSGKPGSGEGSTKGDIKMTQSPSSMYASLGERVTITCKASQDINSYLSWFHHKPGKSPKTLIYRANRLVDGVPSRFSGSGSGQDYSLTISSLDYEDMGIYYCQQYDESPWTFGGGTKLEMKGGGGSQVQLVQSGAEVKKPGSSVKVSCKASGYTFTDYNMHWVRQAPGQGLEWIGYIYPYNGGTGYNQKFKSKATITADESTNTAYMELSSLRSEDTAVYYCARGRPAMDYWGQGTLVTVSSASTTTPAPRPPTPAPTIASQPLSLRPEACRPAAGGAVHTRGLDFACDIYIWAPLAGTCGVLLLSLVITLYCKRGRKKLLYIFKQPFMRPVQTTQEEDGCSCRFPEEEEGGCELRVKFSRSADAPAYKQGQNQLYNELNLGRREEYDVLDKRRGRDPEMGGKPRRKNPQEGLYNELQKDKMAEAYSEIGMKGERRRGKGHDGLYQGLSTATKDTYDALHMQALPPR
Regarding B6, the “elimination of CCRF-CEM cells” value is about 100%.

B7: CD5/CD33 Dual-CAR, construct S039 (other)
chain: QVQLVQSGAEVKKPGSSVKVSCKASGYTFTDYNMHWVRQAPGQGLEWIGYIYPYNGGTGYNQKFKSKATITADESTNTAYMELSSLRSEDTAVYYCARGRPAMDYWGQGTLVTVSSGGGGSDIKMTQSPSSMYASLGERVTITCKASQDINSYLSWFHHKPGKSPKTLIYRANRLVDGVPSRFSGSGSGQDYSLTISSLDYEDMGIYYCQQYDESPWTFGGGTKLEMKGSTSGSGKPGSGEGSTKGNIQLVQSGPELKKPGETVKISCKASGYTFTNYGMNWVKQAPGKGLRWMGWINTHTGEPTYADDFKGRFAFSLETSASTAYLQINNLKNEDTATYFCTRRGYDWYFDVWGAGTTVTVSSGGGGSDIQMTQSPSSLSASVGDRVTITCRASESVDNYGISFMNWFQQKPGKAPKLLIYAASNQGSGVPSRFSGSGSGTDFTLTISSLQPDDFATYYCQQSKEVPWTFGQGTKVEIKASTTTPAPRPPTPAPTIASQPLSLRPEACRPAAGGAVHTRGLDFACDIYIWAPLAGTCGVLLLSLVITLYCKRGRKKLLYIFKQPFMRPVQTTQEEDGCSCRFPEEEEGGCELRVKFSRSADAPAYKQGQNQLYNELNLGRREEYDVLDKRRGRDPEMGGKPRRKNPQEGLYNELQKDKMAEAYSEIGMKGERRRGKGHDGLYQGLSTATKDTYDALHMQALPPR
Consider B7, for which the “elimination of CCRF-CEM cells” value is about 100%.
